The record followed here is patent US7250505.

In test [1] the target is GST-mDab1 PTB domain fusion protein (mouse). Briefly: fluorescence polarization competition against the fluorescein-labeled APP peptide, 1.1 µM PTB domain. On the technique in general: Polarisation of emitted light reports the rotation of a fluorescent probe.
For test [2], the target named is APP synthetic peptide containing the NPXY region (non-phosphorylated) (Mus musculus (Mouse)) (UniProt P12023). Briefly: fluorescence polarization.
The target of test [3] is APP peptide with arginine in place of Pro-2. Put plainly: substitution scan on a cellulose peptide array, radiolabeled GST-PTB.
The target of test [4] is APP peptide with isoleucine in place of Pro-2. Described as above.
Test [5] addresses APP peptide with lysine in place of Pro-2. Described as above.
Test [6] addresses fluorescein-labeled APP peptide (Mus musculus (Mouse)) (UniProt P12023). Put plainly: fluorescence polarization, about 1 nM fluorescein-labeled APP peptide titrated with GST-PTB.
Another test addresses activated Src (Src527F) (UniProt P00523). Put plainly: co-immunoprecipitation with anti-Src from Rat-1 fibroblasts overexpressing both, immunoblot.
Test [7] has as its target GST-mDab1 PTB domain fusion protein (mouse). Briefly: fluorescence polarization competition.

As for “APP synthetic peptide containing the NPXY region (non-phosphorylated) (from UniProt P12023 754-770)”, the competitor concentration of equal effect in test [1] turned out to be 2 µM.

For “GST-mDab1 PTB domain fusion protein (from UniProt O75553 29-197)”, the results for the Kd in test [2] and in test [6] were 0.5 µM and 0.55 µM, respectively. Also, the percent binding against the wild-type APP peptide in test [3], in test [4] and in test [5] was 40% in each case.

For “mDab1 p80 (mDab555 product), tyrosine phosphorylated (from UniProt P97318 1-588)”, the percent of the phosphorylated mDab1 of the total cell lysate immunoprecipitated with Src in the test with activated Src (Src527F) turned out to be 1%.

As to “phosphorylated APP peptide (from UniProt P12023 754-770)”, the fold reduction of affinity against the non-phosphorylated APP peptide in test [7] is 250 fold. Further, the competitor concentration of equal effect in test [1] was found to be 500 µM.
